Laboratory results from PMC5823908, “Human mitochondrial pyruvate carrier 2 as an autonomous membrane transporter” (Scientific Reports, 2018).

Target: the molecule itself
Test: cross-linking; purified MPC2-detergent (DDM) complex, about 10 μg protein, DSS 0.2-4 mM, 30 min, room temperature, 20 mM HEPES pH 8.0, 300 mM NaCl, 5% glycerol, 0.05 mM TCEP, 0.03% DDM

B1: purified human MPC2 after removal of GFP-10xHis (natural protein, UniProt O95563 1-127, looked up)
chain: MSAAGARGLRATYHRLLDKVELMLPEKLRPLYNHPAGPRTVFFWAPIMKWGLVCAGLADMARPAEKLSTAQSAVLMATGFIWSRYSLVIIPKNWSLFAVNFFVGAAGASQLFRIWRYNQELKAKAHK
notes: human mitochondrial pyruvate carrier 2 (MPC2), codon-optimized synthetic gene, NCBI NP_001137146.1; Residues of the PreScission site probably stay at the C-terminus after cleavage; also called purified MPC2; MPC2-detergent (DDM) complex; source: S. cerevisiae lacking endogenous MPC (3Δ); extracted with 1% C12E8, purified by Co-IMAC, PreScission Protease removal of GFP-10xHis, gel filtration in …
  stoichiometry N: 2
